Assay results taken from paper PMC9506717.

Conditions: glycan lost

Substance | expression_or_secretion | other: Spike incorporation into virions | other: viral entry
Spike: N61/603/657Q | no change | decreases | –
Spike: N61/603/657 triple mutant | – | decreases | –
Spike: N801Q | no change | decreases | –
Spike: N61Q/N657Q | – | decreases | –
Spike: N61Q | no change | decreases | –
Spike: N61/657Q | no change | decreases | –
Spike: N616Q | no change | – | decreases
Spike: N603Q | no change | – | –
Spike: N603/657Q | no change | – | –
Spike: N657Q | no change | – | –
